For one test, the system named is SOCS-2 promoter. Description: SOCS-2 promoter reporter (luciferase) activity in HepG2 cells with or without IL-6. In kind it is cell-based, human. To be noted: IL-6 stimulation 3 hours, standardized by β-galactosidase activity, relative to absence of IL-6. How it is done: On the basis of the registered sequence (NCBI Reference Sequences No. NM_003877) of human SOCS-2, a genomic sequence which accords with the sequence was specified as the sequence of NCBI GenBank accession No. NC—000012.5—93000001—94000000. To obtain a DNA consisting of nucleotides 893,596-898,678 of NC—000012.5—93000001—94000000, which was considered the promoter region of human SOCS-2, i.e., a DNA consisting of the nucleotide sequence of SEQ ID NO: 3, the first PCR was carried out using synthetic oligo DNAs [5′-gtg[…]-3′ (SEQ ID NO: 8) and 5′-gtg[…]-3′ (SEQ ID NO: 9)] having restriction enzyme sites […] and NheI, respectively, and an LA Taq (TAKARA; catalogue code RR002A). The resulting PCR product was diluted to 1/50 with sterile water, and the second PCR was carried out using the diluted solution as a template, synthetic oligo DNAs [5′-gtg[…]-3′ (SEQ ID NO: 10) and 5′-gtg[…]-3′ (SEQ ID NO: 11)], and an LA Taq (TAKARA; catalogue code RR002A). […]
HepG2 cells (ATCC accession No. HB-8065) was transformed with the SOCS-2 reporter vector or the control vector prepared in Example 3(1) to measure the activity when stimulated with or without IL-6. […] The cells were lysed with a cell lysis solution LCβ (Toyo Ink MFG), and a luciferase activity was measured using a PicaGene coloring kit (Toyo Ink MFG; 309-04321). […]

Another test relates to endogenous SOCS-2 gene. Description: Endogenous SOCS-2 mRNA in HepG2 cells by quantitative PCR with or without IL-6. The format is cell-based, human. The settings on record: IL-6 10 ng/mL, 3 hours, compensated with G3PDH, relative to absence of IL-6. As for the experimental part: First, an endogenous SOCS-2 promoter activity was measured. Since a stimulation capable of promoting the SOCS-2 promoter activity in pancreatic β cells was unknown, an amount of SOCS-2 mRNA was measured when stimulated by IL-6, which was a typical stimulation capable of increasing a transcriptional activity of STAT1, STAT3, or STAT5. It is considered that STAT1, STAT3, and STAT5 transduce an external signal, and finally promote a SOCS-2 transcriptional activity. More particularly, human HepG2 cells in which the IL-6 reactivity was confirmed were used to measure and compare amounts of endogenous SOCS-2 mRNA expressed when stimulated with or without IL-6 stimulation. The amount of gene expressed was compensated by measuring an amount of a G3PDH (Glyceraldehyde 3-phosphate dehydrogenase) gene expressed, at the same time. […] In this measuring system, an amount of fluorescence from a SYBR Green I dye incorporated into double-stranded DNAs amplified by PCR was detected and quantified in real time, to determine the amount of gene expressed. […]
The amount of […] SOCS-2 gene expressed was compensated with that of the G3PDH gene expressed in accordance with the following equation: C=A/B [C: Compensated amount of SOCS-2 expressed, A: Measured value of the SOCS-2 gene expressed, and B: Measured value of the G3PDH gene expressed]

Test [1] has as its system rat pancreatic Langerhans islets. Description: Insulin secreted from rat pancreatic Langerhans islets overexpressing SOCS-2. To be noted: 90 minutes, adenovirus infected rat islets. In kind it is cell-based. How it is done: After 4 male rats (6-8 weeks old, 350 to 450 g in weight) were anesthetized, the abdomen was incised and exposed. A bile duct of the liver was ligated, and blood was drawn from the heart. From the bile duct, 5 mL of HBSS-HEPES (136.8 mmol/L NaCl, 5.3 mmol/L KCl, 0.8 mmol/L MgSO4, 1 mmol/L Na2HPO4, 0.44 mmol/L KH2PO4, 4.1 mmol/L NaHCO3, 10 mmol/L Hepes, 1 mmol/L CaCl2, and 2 mmol/L glucose, pH 7.2) supplemented with 0.02% Liberase (Roche Diagnostic) was injected using a winged needle. The pancreas was removed and transferred to a tube containing 5 mL of HBSS-HEPE, and incubated at 37° C. for 20 minutes. After the incubation, the whole was stirred, and ice-cold HBSS-HEPES-0.35% BSA was added. The mixture was centrifuged at 1500 rpm for 1 minute to remove the supernatant. To the precipitated tissues, 10 mL of HBSS-HEPES-0.35% BSA was added, and the tissues were suspended using a needle. This washing step was repeated twice. After the centrifugation, the supernatant was removed, and 10 mL of a 8.3% Ficoll-Conray solution was added and suspended. Further, 10 mL of HBSS-HEPES-0.35% BSA was added, and the whole was centrifuged for 20 minutes. After the centrifugation, pancreatic Langerhans islets between two liquid layers were collected. To the collected pancreatic Langerhans islets, 10 mL of HBSS-HEPES-0.35% BSA was added, and the whole was centrifuged. […]

The subject of a further test is MIN6B1 cells. Nature of the test: Insulin secreted from MIN6B1 cells overexpressing SOCS-2. The format is cell-based, mouse. To be noted: 20 minutes, adenovirus infected MIN6B1 cells. How it is done: Mouse pancreatic β cell line MIN6B1 cells [Endocrinol. (2003) 144,. 1368-1379] were infected with SOCS-2/pAdTrack-CMV or pAdTrack-CMV (control) to prepare pancreatic β cells overexpressing SOCS-2, as described below.
MIN6B1 cells (2×10^5 cells) were seeded on a 24-well plate, and cultured for 24 hours in 0.5 mL of a minimum essential medium DMEM (GIBCO) containing 10% fetal bovine serum (SIGMA). SOCS-2/pAdTrack-CMV or pAdTrack-CMV (control) was added to each medium at a concentration of 4×10^8 pfu/well.
After 14 hours from the adenovirus infection of pancreatic β cells, each medium was aspirated, and cells were washed three times with KRB-HEPES (140 mmol/L NaCl, 3.6 mmol/L KCl, 0.5 mmol/L NaH2PO4, 0.5 mmol/L MgSO4, 1.5 mmol/L-CaCl2, 10 mmol/L Hepes, 2 mmol/L NaHCO3, and 0.1% BSA, pH 7.4), and incubated in 2.8 mmol/L glucose-containing KRB-HEPES (1 mL) at 37° C. for 1 hour in the presence of 5% CO2.
After the buffer was aspirated, 2.8 mmol/L or 16.8 mmol/L glucose-containing KRB-HEPES was added. The cells were further incubated at 37° C. for 20 minutes in the presence of 5% CO2, and an amount of insulin secreted into the supernatant was measured.
A commercially available insulin radioimmunoassay kit (Rat insulin [125I] RIA system; Amersham Bioscience) was used for the measurement of the amount of insulin secreted.

Setting [2] is: 16.8 mmol/L glucose, p<0.01 vs control.

Take “IL-6: typical stimulation capable of increasing a transcriptional activity of STAT1, STAT3, or STAT5 (R&D Systems)”: the “SOCS-2 reporter activity, factor of increase” value in the test with SOCS-2 promoter was “approximately 2”. Moreover, the “expression of the endogenous SOCS-2 gene, factor of increase” value in the test on endogenous SOCS-2 gene is “approximately 2”.

B1: SOCS-2: mouse SOCS-2 (amino acid sequence of SEQ ID NO: 2) overexpressed in pancreatic β cells via adenovirus vector pAdTrack-CMV (protein, listed as Mus sp.)
chain: MTLRCLEPSGNGADRTRSQWGTAGLPEEQSPEAARLAKALRELSQTGWYWGSMTVNEAKEKLKEAPEGTFLIRDSSHSDYLLTISVKTSAGPTNLRIEYQDGKFRLDSIICVKSKLKQFDSVVHLIDYYVQMCKDKRTGPEAPRNGTVHLYLTKPLYTSAPTLQHFCRLAINKCTGTIWGLPLPTRLKDYLEEYKFQV
In the case of B1, the “insulin secretion versus control” value in test [1] (2.8 mmol/L glucose) is given as “no difference was observed”; in test [1] (setting [2]), “inhibited the activity of promoting insulin secretion”; in the test on MIN6B1 cells (2.8 mmol/L glucose), “no difference was observed”; in the test on MIN6B1 cells (setting [2]) it was “inhibited the activity of promoting insulin secretion”.
